The series can be described thus: soluble on expression in E. coli; label from the status in PepcDB or PDB records.
Turning to “MDQPWNANIHYDALLDAMVPLGTQCVLDVGCGDGLLAARLARRIPYVTAVDIDAPVLRRAQTRFANAPIRWLHADIMTAELPNAGFDAVVSNAALHHIEDTRTALSRLGGLVTPGGTLAVVTFVTPSLRNGLWHLTSWVACGMANRVKGKWEHSAPIKWPPPQTLHELRSHVRALLPGACIRRLLYGRVLVTWRAPVLEHHHHHH”, the “soluble on expression in E. coli” value is on record as “not soluble”.

On to “MTIYFKNGFYDDTLGGIPEGAVAVRAEEYAALLAGQAQGGQIAADSDGRPVLTPPRPSDYHEWDGKKWKISKAAAAARFAKQKTALAFRLAEKADELKNSLLAGYPQVEIDSFYRQEKEALARQADNNAPTPMLAQIAAARGVELDVLIEKVIEKSARLAVAAGAIIGKRQQLEDKLNTIETAPGLDALEKEIEEWTLNIG”, for which the “soluble on expression in E. coli” value was “not soluble”.

As to “DYNASDMKVVSLRTKDNLHLKSWYKPASKHRPTILYLHGNAGHIGYRMPLVREFIDAGLGVFLLEYRGYGGNPGKPGEKGLYEDGETAIEFLIQHGVPSKRVILYGESIGTGVATHLATKYPVCAVILQSPFTSLTRLAQYHYPLNFLKPWDQYNSLARMKKINAPILVLHGKLDQIVPYQEGLNVFNEANEPKKMVSFDDKEHNDLWSADNFSREIIQFALNQCS”, the “soluble on expression in E. coli” value is listed as “not soluble”.

With “MGSDKIHHHHHHMPPAKTQEFDPSRIKEPNSPSVITKAATLMDVLRTEGPTNSARLAEVLGEPISSVYRMLHTLTAIGWVEQDGKRGSYRVGLAMLTLAELQLRHMDLRKIAALTMRKIHALTGETTFLCVRHGIRAVCIERVDGDRVNSRVLQLGTSLPLHVGAAPRALLAFEGRRAWETYATNLGFEGHNWSKGPSRGELFQHLDEDRDKGFCLVDNEITPGIAAVGAPIYNHRGEVVASLSMSGLRDGILSDTTDYSAVELILQGSAEISQALGATIEHNGGNQKLPQVTPLSIVV”, the “soluble on expression in E. coli” value is recorded as “not soluble”.

Turning to “GPGSMIARAIANRAACTFLNISSSSLMSKWMGDGEKLVRCLFAVATVKQPSVIFIDEIDSLLSMRGEGETDSVRRVKTEFLVQLDGVATDRGDRVLLIGATNRPDELDEAARRRMEKRLYIPLPDEAARRELIQRLLKSLGPSEAGEDGAIGNAGEAASTATATTTTQVTHTLTDADLDTLVRSTDGYSGADLKQLCREAAMGPLREMSIMQLSAVAAADLRPVQRKDFRQALKRLKPSVGPAEVQRYVEWNKLFGSFNEHDDDDDDELEHHEGHGAC”, the “soluble on expression in E. coli” value was “soluble”.

For the sequence “MSLATLAELYEFLETKQDDSHLDSRFSYDAFLPVEQPKARLEILTWWKIERLIEDENCNFDKNFIVSYFDERVKATNNQLLKYRYNYFISLLTNDNRYAKQSIDALIAVINTLLPKDKEDYPHVAEKAIEVLMSLIKRVKYKIPEATDLIWGVLESDYGYRTKMVCIRLAKEKGFFPSRDAKKIVCLCKDLLSLVKDSWRENCCELGLFYSSKIQGEAKPYMNFFYEALGDMEMGQLVDPATAPNNIAIPWMNEDHSQKAMAFYQKAGLTQKRNRAELAFRENKKKMVMLHFKIEKKTDKKIVEYFGNLEKELLEGKLSWLLENLSCPVRFLFPSYEQIRLRMSASKSTVEKLGFENKIMDINGNSKDAGKDFDLRQKYGIWLMNIVRNTVINMILTAVNIKQLTYSKLRKWFLKNTCFGIQLEYTRSGQVVTTTWFSQIDYGVEALIKQYNRFLQGKPTDWRLPVDILSIRFEGILRDMVGDYGGCVTKVGRDNSISQALLDDLLREPCLLQIFRKEDIEFFEYVFTAKGYNIRNYVAHAFYIPQDYGMIEATLVFLCILRLTMFSPKSKTITANEGHHHHHH”, the “soluble on expression in E. coli” value is recorded as “not soluble”.

Regarding “MPLVSLIIRCYNEEKHIGRLLSGVMQQQGIDYEIIIVDSGSTDATVSIAQRYPIQLISIDPQNFSFGRSLNLGCQQASGEYLVFASAHVYPVYQDWLKQLIAPLQTNPQIALSYGKQRGNNQTQFSEHQIFAQWFPDQAQIPQTTPFCNNANAAIRRDLWQKYPYNEDLTGLEDLDWAKRLMQAGYQIAYVPDAEIIHVHQETPQRVRNRYRREAIALKQIFPEQTFSLGDFVRLTVSNTLSDYYYAWQSQQLMTQLWAIPQFRLMQFWGTYQGYHQNNSLNQQLRQTFYYPRPINTITPNVPSKDALKINYAQSDTQLVPDPSPPSPHQLEHHHHHH”, the “soluble on expression in E. coli” value was “soluble”.

Consider “SLFNPNELKMDFLKRPVTHSFLKLEIMPYKSAFNLRMRENIQSYYKQALRGWGSFEDELLGLKNTLKNLPLYQTLKIKPKKINAPICVVGNGPSLDLLLDFLKENEKNCIIFSCGTALKPLKTHGVKVDFQIEVERIDYLKEVLENAPLEDTPLMGANMLNPNAFNVAKEALMFMRGGSACAYISPLSIEYAAPLVGNAGVALAGLMSDEIYLCALDCAYIKGFKKHAQNSYYGDEKEIDTSSLISVEGNFKGYETFSDSLFLLSKERIEEALNHYQPKKVYNLSYGAKIKHAVSLNYSQVKL”, for which the “soluble on expression in E. coli” value is reported as “not soluble”.

As for “MKNADKNFEKEKYIDSLRDYLAVLDKVDDESLKAEICYKVSQIYHYLQKDDPQNALKYAQMSMDLHAKHGEDDLTVLDLINIASILMDSGDKKGALQKLDEAIQKAKDMGDDEIQLIAMSSKASMIAEDNREEALKLYQEVMRKSQEIGDIEDYFDAVQGIVNMVREEDEHRAFEMIMKAIEELENYISGIKSKKEKKDVADSFSYLYDTASDIAMSIGDVDQAMEIAKRLQKIVS”, the “soluble on expression in E. coli” value was “not soluble”.

For the sequence “MSLGSMGPAQFVGRQTLATTPMGDVEIGLQERNGQLEVDIIQARGLTAKPGSKTLPAAYIKAYLLENGICIAKKKTKVARKSLDPLYNQVLLFPESPQGKVLQVIVWGNYGRMERKQFMGVARVLLEELDLTTLAVGWYKLFPTSSMVDPATGPLLRQASQLSLESTVGPCGERSEGHHHHHH”, the “soluble on expression in E. coli” value is reported as “soluble”.

With “MGSDKIHHHHHHMNLRRLKYFIKIVDVGSLTQAADILHIAQPALSQQLATLEGEVNQKLLIRTKRGVTPTNAGKILYSHAQAILRQCAQAQSAIDRAGGELSGSVSVGLAPGTAAQQLALPLMAEVQRQYPGIVLYFNENFGTTLSELIMNGRMDMAVIYDNRNIHGLRFIPLMKEPLCFVCPNSLMKPKKEITLAEVAQHNLFLPRIYNIMRKIVDEAFIKEGLTYQVKCEIESQTTLNAVLAAGMGCTIMPDSAARSMLNASNAWMAKIIDPDIYASLSFCMSDHLSLSEPAEVVKNILLSLMADRTPDNRPLTLVS”, the “soluble on expression in E. coli” value is “not soluble”.

With “MNLYIASIKLWFKGFKENTERSITYSFEPNKINVITGDSSTGKSSILDIIDYLLLSDNPTIVENIINENVEFYGMNIFLEERSYILMRKAPHSGQGTQDVYWKEQEEYPMPYIQTHSVGEMRTILTRMFYVPQHETKVGNRKYNMTFRHFLPFNYLTEDIISSANTYFDTAFFINRSYDVFLDYALELVNGIQYHNANEIKAKIEKAEIDLKQYQKKHQIAQENATKYKASLTSIYDDALSLNLIPADNFFVRENAHEMLHYIKEALAAYNKLIKNDEDTKKLELLKKERYELNNKLSIYNSLLAEMQKQKSSGKKIQDSLRPITFIKEHIDEVIISPETIELLHLLEKQLVQIKESRKEKPKLPHDFALRHEELKDKLKACESKLKELTILRKTIANPKWLERAIGLKYRLENLKRPKEDTYQASTEQNMISLIESLKIEQKNMSLLPHDVKEKLNSYINKYFHSINGIVDSYPDSTMRYDDDERRISLLNNGEDYPVRNIGSKSNYMFLHLCFFLGLHESIMFHRSKHVGSFLFIDQPSMPYYADKGTLDNDDKKQLIKAFRLLNEFMEEIIGNQNRSFQMILIEHADESYWKELEYFHTTATFSKIAQGGLIPKYIYE”, the “soluble on expression in E. coli” value is on record as “not soluble”.

For the sequence “MRYTVALTGGIGSGKSTVADAFADLGITVIDADIIARQMVEPGQPALNAIAEHFGSELIAADGTLRRRALRERIFSHPEEKAWLNALLHPLIQQETQRQFQQATSPYVLWVVPLLVENRLYQKANRVLVVDVTPETQLIRTMQRDDVTREHVEHILAAQATREARLAVADDVIDNNGAPDAIASDVARLHASYLKLASQFVSQEKP”, the “soluble on expression in E. coli” value is given as “not soluble”.

As for “MKKLKMKKLISLLLTLTMILALTACGAKETGKSQDESDLNYVKSKGKLIIGYTNYAPMNYTDENGVFTGFDTELAILTCEKLGVEPEFVEINWDTKEVELNAKSIDCIWNGLTIDDDRKAKMEITQPYVKNAQVVLVKEGTEYNGTESLIGKTVVAEQSSAGEKTIMADENLKKANYVPKTLQTDCLMELKSGTADAAVLDLTLAKTMTGEGTSYEDIVIVDYLAEENYGVAFRKGSDICAEVNKIFDDFLADGTMAALAEKYGLELAE”, the “soluble on expression in E. coli” value is “not soluble”.

In the case of “MRQVDFSPFYRSTVGFDHLFNWFDSRTQPDDVSSYPPYNIERLSEDSYRISMAVAGFSQDEIDIETHCNQLIVRGERKPENDDEEREFLYRGIASRAFERRFHLADHVKVIGAELGDGLLHIQLKREMPAELKPKKIVVQASSSAVKNGNDHAVRKVSLENERTE”, the “soluble on expression in E. coli” value is reported as “not soluble”.

With “MGSDKIHHHHHHMPEPKQETDFTAPAFRWENQQLKAIYTPKNIYLDDLKGIERQKEKIIQNTLQFLNGLPANDVLLTGSRGTGKSSIVRALLTEYAPQGLRLIEIERDDLADLPKIQKIIQNRPEKYIVYCDDLAFNAEDENYRSLKSVLDGSLQSGSTNFIIYATSNRRHLLPEFMHENTPVTKVDVPQYTELHPQEAIEEKISLSDRFGLWLSFYPMDQNLYLEIVEHYLDKANMPFNDEVRAESLRWCQMRGQRSGRAAYQFSKHWIGLNALKDLSNN”, the “soluble on expression in E. coli” value is on record as “not soluble”.

For the sequence “MVIATDDLETTCPNCNGSGREEPEPCPKCLGKGVILTAQGSTLLHFIKKHIHE”, the “soluble on expression in E. coli” value is “soluble”.

For “MTEKTTVKTLKDVVVRFCGDSGDGMQLTGTIFSDLSAVFGNTISTFPDYPAEIRAPQGTLGGVSGFQVHIGTDLVRTPGDLADVLVAMNPAALKVNRTHVRRDSIIIIDSDSFMASDLEKAEIASEDFMTELGLTTQELFTVPISSMVKKSTAEFGLDVKAALRCKNMFALGLVCWLFDRPTQHAIDYLNRKFGKKEAILNANIKALADGFNYGHNTHATATTYRIEGRKQTPGVYMDISGNKATAYGLVAAAEHANLNL”, the “soluble on expression in E. coli” value is listed as “soluble”.

For the sequence “MGSDKIHHHHHHMSRLVVKNLTKIFSLGFFSKRRIEAVKNVSFEVKEKEIVSLVGESGSGKTTTAKMILRLLPPTSGEIYFEGKDIWKDIKDRESLVEFRRKVHAVFQDPFASYNPFYPVERTLWQAISLLENKPSNKKEALELIKESLFRVGIDPKDVLGKYPHQISGGQKQRIMIARCWILRPLLIVADEPTSMIDASSRGGIIKLLEELREEQGTSIIFITHDLGLAYYVSDNIFVMKNGEIVERGHPDKVVLEPTHEYTKLLVGSIPKLYRKLEDL”, the “soluble on expression in E. coli” value is given as “not soluble”.

Take “MGHHHHHHMAGVSEYELPEDPRWELPRDRLVLGKPLGEGAFGQVVLAEAIGLDKDKPNRVTKVAVKMLKSDATEKDLSDLISEMEMMKMIGKHKNIINLLGACTQDGPLYVIVEYASKGNLREYLQARRPPGLEFSFNPSHNPEEQLSSKDLVSCAYQVARGMEYLASKKCIHRDLAARNVLVTEDNVMKIADFGLARDIHHIDYYKKTTNGRLPVKWMAPEALFDRIYTHQSDVWSFGVLLWEIFTLGGSPYPGVPVEELFKLLKEGHRMDKPSNCTNELYMMMRDCWHAVPSQRPTFKQLVEDLDRIVALTSNQEYLDLSMPLD”: the “soluble on expression in E. coli” value is given as “soluble”.
